Data published in the Immune Epitope Database (IEDB).
Values belong to the sequence of their own block, whether it stands above or below them.

Key:
HLA-B*14:02 = experiment: IEDB peptide-MHC binding, purified MHC/direct/fluorescence; filed as Kd, often an IC50 or EC50 that approximates it; ≥ and ≤ were set here for values at or beyond the usual limits of such assays; conditions: source organism: Homo sapiens
HLA-B*45:06 = experiment: IEDB peptide-MHC binding, purified MHC/competitive/fluorescence; filed as Kd, often an IC50 or EC50 that approximates it; ≥ and ≤ were set here for values at or beyond the usual limits of such assays; conditions: source organism: Entamoeba histolytica HM-1:IMSS
HLA-B*83:01 = experiment: as above; conditions: source organism: Entamoeba histolytica HM-1:IMSS
HLA-B*40:13 = experiment: as above; conditions: source organism: Entamoeba histolytica HM-1:IMSS
HLA-B*51:01 = experiment: as above; conditions: source organism: Entamoeba histolytica HM-1:IMSS
HLA-A*32:15 = experiment: as above; conditions: source organism: Entamoeba histolytica HM-1:IMSS
HLA-B*15:42 = experiment: as above; conditions: source organism: Entamoeba histolytica HM-1:IMSS
HLA-A*68:23 = experiment: as above; conditions: source organism: Entamoeba histolytica HM-1:IMSS
HLA-C*05:01 = experiment: IEDB peptide-MHC binding, purified MHC/direct/fluorescence; filed as Kd, often an IC50 or EC50 that approximates it; ≥ and ≤ were set here for values at or beyond the usual limits of such assays; conditions: source organism: Entamoeba histolytica HM-1:IMSS
HLA-B*58:01 [1] = experiment: IEDB peptide-MHC binding, purified MHC/competitive/fluorescence; filed as Kd, often an IC50 or EC50 that approximates it; ≥ and ≤ were set here for values at or beyond the usual limits of such assays; conditions: source organism: Escherichia coli str. K-12 substr. DH10B
HLA-A*02:01 [2] = experiment: as above; conditions: source organism: Escherichia coli str. K-12 substr. DH10B
HLA-B*48:01 = experiment: as above; conditions: source organism: Escherichia coli str. K-12 substr. DH10B
HLA-B*07:02 = experiment: as above; conditions: source organism: Escherichia coli str. K-12 substr. DH10B
HLA-B*08:03 = experiment: as above; conditions: source organism: Escherichia coli str. K-12 substr. DH10B
HLA-A*03:01 = experiment: as above; conditions: source organism: Escherichia coli str. K-12 substr. DH10B
HLA-A*26:02 = experiment: as above; conditions: source organism: Escherichia coli str. K-12 substr. DH10B
HLA-A*31:01 = experiment: as above; conditions: source organism: Escherichia coli str. K-12 substr. DH10B
HLA-A*01:01 = experiment: as above; conditions: source organism: Escherichia coli str. K-12 substr. DH10B
HLA-B*15:01 = experiment: as above; conditions: source organism: Escherichia coli str. K-12 substr. DH10B
HLA-B*27:05 = experiment: as above; conditions: source organism: Escherichia coli str. K-12 substr. DH10B
HLA-A*02:12 = experiment: as above
HLA-B*40:01 = experiment: as above; conditions: source organism: Escherichia coli str. K-12 substr. DH10B
HLA-B*08:02 = experiment: as above; conditions: source organism: Escherichia coli str. K-12 substr. DH10B
HLA-A*02:03 = experiment: as above; conditions: source organism: Escherichia coli str. K-12 substr. DH10B
HLA-A*30:01 = experiment: as above; conditions: source organism: Escherichia coli str. K-12 substr. DH10B
HLA-B*35:01 = experiment: as above; conditions: source organism: Escherichia coli str. K-12 substr. DH10B
HLA-B*46:01 = experiment: as above
HLA-B*18:01 = experiment: as above; conditions: source organism: Escherichia coli str. K-12 substr. DH10B
HLA-A*11:01 = experiment: as above; conditions: source organism: Escherichia coli str. K-12 substr. DH10B
HLA-A*29:02 [3] = experiment: as above; conditions: source organism: Burkholderia mallei NCTC 10229
HLA-A*02:19 = experiment: as above; conditions: source organism: Burkholderia mallei NCTC 10229
HLA-A*80:01 = experiment: as above; conditions: source organism: Burkholderia mallei NCTC 10229
HLA-B*39:01 = experiment: as above; conditions: source organism: Burkholderia mallei NCTC 10229
HLA-A*26:01 = experiment: as above; conditions: source organism: Burkholderia mallei NCTC 10229
HLA-C*15:02 = experiment: IEDB peptide-MHC binding, purified MHC/direct/fluorescence; filed as Kd, often an IC50 or EC50 that approximates it; ≥ and ≤ were set here for values at or beyond the usual limits of such assays; conditions: source organism: Burkholderia mallei NCTC 10229
HLA-B*15:02 = experiment: IEDB peptide-MHC binding, purified MHC/competitive/fluorescence; filed as Kd, often an IC50 or EC50 that approximates it; ≥ and ≤ were set here for values at or beyond the usual limits of such assays; conditions: source organism: Homo sapiens
HLA-A*29:02 [4] = experiment: IEDB peptide-MHC binding, purified MHC/competitive/radioactivity; filed as Kd, often an IC50 or EC50 that approximates it; ≥ and ≤ were set here for values at or beyond the usual limits of such assays; conditions: source organism: Homo sapiens
HLA-B*58:01 [5] = experiment: as above; conditions: source organism: Homo sapiens
HLA-A*02:01 [6] = experiment: as above; conditions: source organism: Homo sapiens
HLA-B*57:01 = experiment: as above; conditions: source organism: Homo sapiens
HLA-A*02:07 = experiment: as above; conditions: source organism: Homo sapiens
[7] = source organism: Escherichia coli str. K-12 substr. DH10B

Sequence: DELNHASI
Kd (HLA-B*14:02): 163 nM

Sequence: MPYHGYHII
Kd (HLA-B*45:06): ≥ 5000 nM
Kd (HLA-B*83:01): 36.9 nM
Kd (HLA-B*40:13): 44.1 nM
Kd (HLA-B*51:01): 91 nM
Kd (HLA-A*32:15): 134 nM
Kd (HLA-B*15:42): ≥ 5000 nM
Kd (HLA-A*68:23): 95 nM
Kd (HLA-C*05:01): ≥ 20000 nM

Sequence: RTFGQPLFF
Kd (HLA-A*29:02 [3]): 0.2 nM
Kd (HLA-A*02:19): ≥ 20000 nM
Kd (HLA-A*80:01): 413 nM
Kd (HLA-A*02:12; source organism: Burkholderia mallei NCTC 10229): ≥ 20000 nM
Kd (HLA-B*39:01): ≥ 20000 nM
Kd (HLA-A*26:01): ≥ 20000 nM
Kd (HLA-C*15:02): 5 nM

Other lines, results leading:

Kd (HLA-B*58:01 [1]): 2260 nM
Kd (HLA-A*02:01 [2]): 367 nM
Kd (HLA-B*48:01): ≥ 20000 nM
Kd (HLA-B*07:02): ≥ 20000 nM
Kd (HLA-B*08:03): ≥ 20000 nM
Kd (HLA-A*03:01): 1070 nM
Kd (HLA-A*26:02): ≥ 20000 nM
Kd (HLA-A*31:01): 4770 nM
Kd (HLA-A*01:01): 1040 nM
Kd (HLA-B*15:01): ≥ 20000 nM
Kd (HLA-B*27:05): ≥ 20000 nM
Kd (HLA-A*02:12; [7]): 68.6 nM
Kd (HLA-B*40:01): ≥ 20000 nM
Kd (HLA-B*08:02): ≥ 20000 nM
Kd (HLA-A*02:03): ≥ 20000 nM
Kd (HLA-A*30:01): 75.3 nM
Kd (HLA-B*35:01): ≥ 20000 nM
Kd (HLA-B*46:01; [7]): ≥ 20000 nM
Kd (HLA-B*18:01): ≥ 20000 nM
Kd (HLA-A*11:01): 190 nM
Sequence: QVIFKCVPK

Kd (HLA-B*15:02): 13.8 nM
Kd (HLA-B*46:01; source organism: Homo sapiens): 51.5 nM
Kd (HLA-A*29:02 [4]): 2870 nM
Kd (HLA-B*58:01 [5]): ≥ 48300 nM
Kd (HLA-A*02:01 [6]): ≥ 78100 nM
Kd (HLA-B*57:01): ≥ 45600 nM
Kd (HLA-A*02:07): ≥ 60000 nM
Sequence: SIRDGVRAY
